Publication PMC12676389

Legend:
[1] = target: β2-adrenergic receptor, construct PN1 (monomeric receptor) (UniProt P07550); test: BLI; FLAG-tagged β2AR (monomer or AP-bound dimer) captured with 10 μM Iso on SA tips by biotinylated anti-FLAG M1 Fab; Gs 30 nM to 10 μM with 10 μM GDP and 0.1% BSA in NH buffer, 0.01% LMNG, 0.001% CHS; 30°C; KD from equilibrium responses
[2] = target: β2-adrenergic receptor, construct PN1 (monomeric receptor) (UniProt P07550); test: BLI; as a16, monomeric β2AR with 10 μM AP
[3] = target: AP-7-168-bound β2AR dimer (construct PN1) (UniProt P07550); test: SEC; AP-bound dimer with nucleotide-free Gs; peak fractions on SDS-PAGE, ratio of β2AR to Gα estimated on gels

For “heterotrimeric Gs (Gαsβ1γ2) (from UniProt P63092 1-394; P62873 1-340; P59768 1-71) (complex)”, the Kd [1] was 0.96 µM, the Kd [2] was 1.7 µM and the stoichiometry N [3] was 2 β2AR per Gα.
